Values belong to the binder of their own block, whether it stands above or below them. Starred links: 1 amine or outer side, 2 acyl side, 3 side chain; linkers in the order of their positions; H or OH if unused. Non-standard residues stand in square brackets, D forms with d. Groups on a side chain read outwards from the residue. *: point of attachment. TTDS = 4-[3-[2-[2-(3-aminopropoxy)ethoxy]ethoxy]propylamino]-4-oxo-butanoyl; γGlu = O=C(O)[C@H](CCC(=O)[*:2])N[*:1]; Stearoyl = CCCCCCCCCCCCCCCCCC(=O)*; Palmitoyl = CCCCCCCCCCCCCCCC(=O)*; αMeK = C[C@](N)(CCCCN)C(=O)O; AEEA = NCCOCCOCC(=O)O; Aib = CC(C)(N)C(=O)O
Biological target: T1, RXFP1 receptor (endogenous, on OVCAR5 cells) (UniProt Q9HBX9 1-757, limits assumed)
T1 sequence (looked up): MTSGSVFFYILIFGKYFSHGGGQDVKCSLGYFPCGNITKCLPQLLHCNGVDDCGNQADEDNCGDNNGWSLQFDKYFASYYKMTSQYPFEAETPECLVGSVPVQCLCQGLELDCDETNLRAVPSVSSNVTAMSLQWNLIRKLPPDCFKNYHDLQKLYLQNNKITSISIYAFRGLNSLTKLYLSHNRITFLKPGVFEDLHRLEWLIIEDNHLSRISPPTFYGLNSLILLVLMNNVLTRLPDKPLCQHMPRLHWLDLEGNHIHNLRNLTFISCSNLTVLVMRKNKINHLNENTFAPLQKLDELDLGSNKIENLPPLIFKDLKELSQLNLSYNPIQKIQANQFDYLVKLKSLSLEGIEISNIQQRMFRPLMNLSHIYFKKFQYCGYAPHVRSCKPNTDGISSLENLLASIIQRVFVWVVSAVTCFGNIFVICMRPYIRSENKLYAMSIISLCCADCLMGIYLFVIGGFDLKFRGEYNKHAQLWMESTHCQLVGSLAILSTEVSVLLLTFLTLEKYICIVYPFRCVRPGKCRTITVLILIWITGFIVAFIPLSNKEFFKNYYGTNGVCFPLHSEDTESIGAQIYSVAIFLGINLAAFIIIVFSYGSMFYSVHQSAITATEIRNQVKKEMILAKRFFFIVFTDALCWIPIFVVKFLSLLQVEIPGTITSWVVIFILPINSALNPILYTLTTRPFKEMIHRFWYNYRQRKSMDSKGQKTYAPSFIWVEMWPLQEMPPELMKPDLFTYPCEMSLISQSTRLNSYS
Assay: cell-based or functional assay

Binder: Ac-LEGREKVRAK(Ac)I[Aib][Aib]EGK([TTDS-TTDS-TTDS-γGlu-γGlu-γGlu-Palmitoyl])SKWS[Aib]RAK-NH2 [peptide of SEQ ID NO: 73]
EC50 (nM), OVCAR 5 cells (cAMP): 0.2 nM
EMax, OVCAR 5 cells (cAMP): 95%

Binder: Ac-LEGREKVRAK(Ac)I[Aib][Aib]EGK([TTDS-TTDS-TTDS-γGlu-γGlu-γGlu-Palmitoyl])SRWS[Aib]RKK(Ac)-NH2 [peptide of SEQ ID NO: 64]
EC50 (nM), OVCAR 5 cells (cAMP): 0.52 nM
EMax, OVCAR 5 cells (cAMP): 95%

Binder: Ac-LEGREKVRAK(Ac)I[Aib][Aib]EGK([TTDS-TTDS-TTDS-γGlu-γGlu-γGlu-Palmitoyl])SQWS[Aib]RKK(Ac)-NH2 [peptide of SEQ ID NO: 63]
EC50 (nM), OVCAR 5 cells (cAMP): 1.45 nM
EMax, OVCAR 5 cells (cAMP): 97%

Binder: Ac-LEGRERVRAK(Ac)I[Aib][Aib]EGK([TTDS-TTDS-TTDS-γGlu-γGlu-γGlu-Palmitoyl])STWS[Aib]RKK(Ac)-NH2 [peptide of SEQ ID NO: 67]
EC50 (nM), OVCAR 5 cells (cAMP): 0.48 nM
EMax, OVCAR 5 cells (cAMP): 95%

Binder: Ac-LEGREKVRAK(Ac)I[Aib][Aib]EGK([TTDS-TTDS-TTDS-γGlu-γGlu-γGlu-Stearoyl])STFS[αMeK]RAK(Ac)-NH2 [peptide of SEQ ID NO: 7]
EC50 (nM), OVCAR 5 cells (cAMP): 0.07 nM
EMax, OVCAR 5 cells (cAMP): 95%

Binder: Ac-LEGREKVRAK(Ac)I[Aib][Aib]EGK([TTDS-TTDS-TTDS-γGlu-γGlu-γGlu-Palmitoyl])STF[Aib]RRAK(Ac)-NH2 [peptide of SEQ ID NO: 72]
EC50 (nM), OVCAR 5 cells (cAMP): 0.56 nM
EMax, OVCAR 5 cells (cAMP): 91%

Binder: Ac-LEGREKVRAK(Ac)I[Aib]IEGK([TTDS-TTDS-TTDS-γGlu-γGlu-γGlu-Palmitoyl])STWS[Aib]RKK(Ac)-NH2 [peptide of SEQ ID NO: 70]
EC50 (nM), OVCAR 5 cells (cAMP): 1.34 nM
EMax, OVCAR 5 cells (cAMP): 94%

Binder: Ac-LEGREKVRAK(Ac)I[Aib][Aib]EGK([TTDS-TTDS-γGlu-γGlu-γGlu-Stearoyl])STFS[Aib]RKK(Ac)-NH2 [peptide of SEQ ID NO: 60]
EC50 (nM), OVCAR 5 cells (cAMP): 0.15 nM
EMax, OVCAR 5 cells (cAMP): 95%

Binder: Ac-LEGREKVRAK(Ac)I[Aib][Aib]EGK([TTDS-TTDS-TTDS-γGlu-γGlu-γGlu-Palmitoyl])STWS[Aib]RAK-NH2 [peptide of SEQ ID NO: 71]
EC50 (nM), OVCAR 5 cells (cAMP): 0.36 nM
EMax, OVCAR 5 cells (cAMP): 95%

Binder: Ac-LEGREKVRAK(Ac)I[Aib][Aib]EGK([TTDS-TTDS-γGlu-γGlu-γGlu-Stearoyl])STWS[Aib]RKK(Ac)-NH2 [peptide of SEQ ID NO: 6]
EC50 (nM), OVCAR 5 cells (cAMP): 0.27 nM
EMax, OVCAR 5 cells (cAMP): 95%

Binder: Ac-LEGREKVRAK(Ac)I[Aib][Aib]EGK([TTDS-TTDS-TTDS-TTDS-γGlu-γGlu-γGlu-Stearoyl])STFS[Aib]RKK(Ac)-NH2 [peptide of SEQ ID NO: 59]
EC50 (nM), OVCAR 5 cells (cAMP): 0.09 nM
EMax, OVCAR 5 cells (cAMP): 99%

Binder: Ac-LEGREKVRAK(Ac)I[Aib][Aib]EGK([TTDS-TTDS-TTDS-γGlu-γGlu-γGlu-Stearoyl])STFS[Aib]RKK(Ac)-NH2 [peptide of SEQ ID NO: 61]
EC50 (nM), OVCAR 5 cells (cAMP): 0.1 nM
EMax, OVCAR 5 cells (cAMP): 97%

Next, values leading:

EC50 (nM), OVCAR 5 cells (cAMP): 1.5 nM
EMax, OVCAR 5 cells (cAMP): 99%
Binder: Ac-LEGREKVRAK(Ac)I[Aib][Aib]EGK([TTDS-TTDS-TTDS-γGlu-γGlu-γGlu-Palmitoyl])STWS[Aib]RKK(Ac)-NH2 [peptide of SEQ ID NO: 1]

EC50 (nM), OVCAR 5 cells (cAMP): 1.19 nM
EMax, OVCAR 5 cells (cAMP): 95%
Binder: Ac-LEGREKVRK(Ac)QI[Aib][Aib]EGK([TTDS-TTDS-TTDS-γGlu-γGlu-γGlu-Palmitoyl])STWS[Aib]RKK(Ac)-NH2 [peptide of SEQ ID NO: 65]

EC50 (nM), OVCAR 5 cells (cAMP): 0.54 nM
EMax, OVCAR 5 cells (cAMP): 94%
Binder: Ac-LEGREKVRAK(Ac)I[Aib]IEGK([TTDS-TTDS-TTDS-TTDS-γGlu-γGlu-γGlu-Palmitoyl])STWS[Aib]RKK(Ac)-NH2 [peptide of SEQ ID NO: 74]

EC50 (nM), OVCAR 5 cells (cAMP): 0.78 nM
EMax, OVCAR 5 cells (cAMP): 97%
Binder: Ac-LEGREKVRAK(Ac)I[Aib][Aib]EGK([TTDS-TTDS-TTDS-γGlu-γGlu-γGlu-Palmitoyl])STWS[Aib]RK(Ac)R-NH2 [peptide of SEQ ID NO: 69]

EC50 (nM), OVCAR 5 cells (cAMP): 0.19 nM
EMax, OVCAR 5 cells (cAMP): 97%
Binder: Ac-LEGRERVRAK(Ac)I[Aib][Aib]EGK([TTDS-TTDS-TTDS-TTDS-γGlu-γGlu-γGlu-Palmitoyl])STWS[Aib]RRK(Ac)-NH2 [peptide of SEQ ID NO: 75]

EC50 (nM), OVCAR 5 cells (cAMP): 0.88 nM
EMax, OVCAR 5 cells (cAMP): 98%
Binder: Ac-LEGREKVRAK(Ac)I[Aib][Aib]EGK([TTDS-TTDS-TTDS-γGlu-γGlu-γGlu-Palmitoyl])STWS[Aib]RK(Ac)K-NH2 [peptide of SEQ ID NO: 68]

EC50 (nM), OVCAR 5 cells (cAMP): 6.31 nM
EMax, OVCAR 5 cells (cAMP): 93%
Binder: Ac-LEGREKVRAK(Ac)I[Aib][Aib]EGK([TTDS-TTDS-TTDS-γGlu-γGlu-γGlu-Palmitoyl])STWK(Ac)[Aib]RAK(Ac)-NH2 [peptide of SEQ ID NO: 66]

EC50 (nM), OVCAR 5 cells (cAMP): 9.1 nM
EMax, OVCAR 5 cells (cAMP): 85%
B1: peptide of SEQ ID NO: 5 (peptide)
peptide: Ac-LEGREKVRAK(Ac)I[Aib][Aib]EGK([AEEA-AEEA-AEEA-AEEA-γGlu-γGlu-γGlu-Palmitoyl])STWS[Aib]RKK(Ac)-NH2
SMILES: CCCCCCCCCCCCCCCC(=O)N[C@@H](CCC(=O)N[C@@H](CCC(=O)N[C@@H](CCC(=O)NCCOCCOCC(=O)NCCOCCOCC(=O)NCCOCCOCC(=O)NCCOCCOCC(=O)NCCCC[C@H](NC(=O)CNC(=O)[C@H](CCC(=O)O)NC(=O)C(C)(C)NC(=O)C(C)(C)NC(=O)[C@@H](NC(=O)[C@H](CCCCNC(C)=O)NC(=O)[C@H](C)NC(=O)[C@H](CCCNC(=N)N)NC(=O)[C@@H](NC(=O)[C@H](CCCCN)NC(=O)[C@H](CCC(=O)O)NC(=O)[C@H](CCCNC(=N)N)NC(=O)CNC(=O)[C@H](CCC(=O)O)NC(=O)[C@H](CC(C)C)NC(C)=O)C(C)C)[C@@H](C)CC)C(=O)N[C@@H](CO)C(=O)N[C@H](C(=O)N[C@@H](Cc1c[nH]c2ccccc12)C(=O)N[C@@H](CO)C(=O)NC(C)(C)C(=O)N[C@@H](CCCNC(=N)N)C(=O)N[C@@H](CCCCN)C(=O)N[C@@H](CCCCNC(C)=O)C(N)=O)[C@@H](C)O)C(=O)O)C(=O)O)C(=O)O

EC50 (nM), OVCAR 5 cells (cAMP): 0.6 nM
EMax, OVCAR 5 cells (cAMP): 98%
Binder: Ac-LEGREKVRAK(Ac)I[Aib][Aib]EGK([TTDS-TTDS-TTDS-γGlu-γGlu-γGlu-γGlu-Palmitoyl])STWS[Aib]RKK(Ac)-NH2 [peptide of SEQ ID NO: 62]

Source: patent US20190233494A1 (Sanofi, published 2019)
